According to the Immune Epitope Database (IEDB):

Legend:
[1] = molecular target: HLA-B*51:01; experiment: IEDB peptide-MHC binding, purified MHC/competitive/fluorescence; filed as Kd, often an IC50 or EC50 that approximates it; ≥ and ≤ were set here for values at or beyond the usual limits of such assays; conditions: source organism: Araucaria virus
[2] = molecular target: HLA-B*15:17; experiment: as above; conditions: source organism: Araucaria virus
[3] = molecular target: HLA-B*46:01; experiment: as above; conditions: source organism: Araucaria virus
[4] = molecular target: HLA-B*18:01; experiment: as above; conditions: source organism: Araucaria virus
[5] = molecular target: HLA-A*02:01; experiment: as above; conditions: source organism: Araucaria virus
[6] = molecular target: HLA-A*69:01; experiment: as above; conditions: source organism: Araucaria virus
[7] = molecular target: HLA-B*57:01; experiment: as above; conditions: source organism: Araucaria virus
[8] = molecular target: HLA-B*39:01; experiment: as above; conditions: source organism: Araucaria virus
[9] = molecular target: HLA-A*26:01; experiment: as above; conditions: source organism: Araucaria virus
[10] = molecular target: HLA-B*27:03; experiment: as above; conditions: source organism: Araucaria virus
[11] = molecular target: HLA-A*23:01; experiment: IEDB peptide-MHC binding, purified MHC/direct/fluorescence; filed as Kd, often an IC50 or EC50 that approximates it; ≥ and ≤ were set here for values at or beyond the usual limits of such assays; conditions: source organism: Araucaria virus
[12] = molecular target: HLA-A*29:02; experiment: as above
[13] = molecular target: HLA-A*02:12; experiment: as above
[14] = molecular target: HLA-A*02:16; experiment: as above; conditions: source organism: Araucaria virus
[15] = molecular target: HLA-A*02:11; experiment: as above; conditions: source organism: Araucaria virus
[16] = molecular target: HLA-A*03:01; experiment: as above
[17] = molecular target: HLA-B*15:01; experiment: as above
[18] = molecular target: HLA-A*02:19; experiment: as above
[19] = molecular target: HLA-A*68:02; experiment: as above; conditions: source organism: Araucaria virus
[20] = molecular target: HLA-A*24:03; experiment: as above; conditions: source organism: Araucaria virus
[21] = molecular target: HLA-B*27:05; experiment: as above; conditions: source organism: Yersinia pestis Nepal516
[22] = molecular target: HLA-B*08:01; experiment: as above; conditions: source organism: Yersinia pestis Nepal516
[23] = molecular target: HLA-A*31:01; experiment: as above; conditions: source organism: Yersinia pestis Nepal516
[24] = molecular target: HLA-B*51:01; experiment: as above; conditions: source organism: Yersinia enterocolitica subsp. enterocolitica 8081
[25] = molecular target: HLA-B*40:01; experiment: as above; conditions: source organism: Yersinia pestis
[26] = molecular target: HLA-A*01:01; experiment: as above; conditions: source organism: Yersinia pestis Nepal516
[27] = molecular target: HLA-B*58:01; experiment: as above; conditions: source organism: Yersinia pestis Nepal516
[28] = molecular target: HLA-A*02:01; experiment: as above; conditions: source organism: Yersinia pestis Nepal516
[29] = molecular target: HLA-B*07:02; experiment: as above; conditions: source organism: Yersinia pestis
[30] = molecular target: HLA-A*69:01; experiment: as above; conditions: source organism: Yersinia pestis
[31] = molecular target: HLA-B*57:01; experiment: as above; conditions: source organism: Yersinia enterocolitica subsp. enterocolitica 8081
[32] = molecular target: HLA-B*44:02; experiment: as above; conditions: source organism: Yersinia pestis Nepal516
[33] = molecular target: HLA-A*11:01; experiment: as above; conditions: source organism: Yersinia pestis Nepal516
[34] = molecular target: HLA-A*26:01; experiment: as above; conditions: source organism: Yersinia pestis
[35] = source organism: Araucaria virus
[36] = source organism: Yersinia enterocolitica subsp. enterocolitica 8081
[37] = source organism: Yersinia pestis Nepal516

AQKLATKPV
Kd [1]: ≥ 20 µM | Kd [2]: ≥ 20 µM | Kd [3]: ≥ 20 µM | Kd [4]: ≥ 20 µM | Kd [5]: ≥ 20 µM | Kd [6]: ≥ 20 µM | Kd [7]: ≥ 20 µM | Kd [8]: ≥ 20 µM | Kd [9]: ≥ 20 µM | Kd [10]: ≥ 20 µM | Kd [11]: ≥ 20 µM | Kd [12, 35]: ≥ 20 µM | Kd [13, 35]: ≥ 20 µM | Kd [14]: ≥ 20 µM | Kd [15]: ≥ 20 µM | Kd [16, 35]: ≥ 20 µM | Kd ([17]; source organism: Orthohantavirus andesense): 0.716 µM | Kd [18, 35]: ≥ 20 µM | Kd [19]: ≥ 20 µM | Kd [20]: ≥ 20 µM

ETIFTVLAL
Kd [21]: ≥ 20 µM | Kd [22]: ≥ 20 µM | Kd [23]: ≥ 20 µM | Kd [24]: ≥ 20 µM | Kd [12, 36]: 0.182 µM | Kd [13, 36]: ≥ 20 µM | Kd [25]: 2.41 µM | Kd [16, 37]: ≥ 20 µM | Kd [26]: ≥ 20 µM | Kd [17, 37]: ≥ 20 µM | Kd [27]: ≥ 20 µM | Kd [18, 36]: ≥ 20 µM | Kd [28]: ≥ 20 µM | Kd [29]: 4.5 µM | Kd [30]: 0.0035 µM | Kd [31]: ≥ 20 µM | Kd [32]: ≥ 20 µM | Kd [33]: ≥ 20 µM | Kd [34]: 0.00767 µM
